In US20090304651A1 (published 2009):
Substitutions are numbered along the chain they refer to. In names and notes the source's numbering stands. Like-named read-outs stand apart in the source and are kept apart here.

B1: IGF2R domain 11 E1544V (amino acids 1511-1650, C-terminal His6 tag, from Pichia pastoris) (receptor)
chain: NEHDDCQVTNPSTGHLFDLSSLSGRAGFTAAYSVKGLVYMSICGENENCPPGVGACFGQTRISVGKANKRLRYVDQVLQLVYKDGSPCPSKSGLSYKSVISFVCRPEAGPTNRPMLISLDKQTCTLFFSWHTPLACEQATHHHHHH
B2: IGF2R domain 11 I1572A (amino acids 1511-1650, C-terminal His6 tag, from Pichia pastoris) (receptor)
chain: B1 chain with V34E, I62A
notes: also called null mutant
B3: IGF2R domain 11 K1545A (amino acids 1511-1650, C-terminal His6 tag, from Pichia pastoris) (receptor)
chain: B1 chain with V34E, K35A
B4: IGF2R domain 11 Q1569A (amino acids 1511-1650, C-terminal His6 tag, from Pichia pastoris) (receptor)
chain: B1 chain with V34E, Q59A
B5: IGF2R domain 11 S1543A (amino acids 1511-1650, C-terminal His6 tag, from Pichia pastoris) (receptor)
chain: B1 chain with S33A, V34E
B6: IGF2R domain 11 S1596A (amino acids 1511-1650, C-terminal His6 tag, from Pichia pastoris) (receptor)
chain: B1 chain with V34E, S86A
B7: IGF2R domain 11 T1570A (amino acids 1511-1650, C-terminal His6 tag, from Pichia pastoris) (receptor)
chain: B1 chain with V34E, T60A
B8: IGF2R domain 11 Y1542A (amino acids 1511-1650, C-terminal His6 tag, from Pichia pastoris) (receptor)
chain: B1 chain with Y32A, V34E

Key:
[1] = molecular target: T1, recombinant human IGF-II (Insulin-like Growth Factor II) (human, UniProt P01344 25-91, biotinylated (Biotinyl-IGF-II, GroPep) where immobilised in SPR, site not stated; not biotinylated in ITC and as SPR analyte); assay: SPR, IGF-II immobilised, kinetic fit
T1 construct: also called IGF2; IGF-2
T1 sequence (P01344 25-91 limits assumed): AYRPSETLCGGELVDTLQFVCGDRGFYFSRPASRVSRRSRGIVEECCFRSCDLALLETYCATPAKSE
Protocol: (§1) Duplicate analyte injections were performed at concentrations of 4096, 2048, 1024, 512, 256, 128, 64, 32, 16 and 8 nM.
(§2) Kinetic analysis by Surface Plasmon Resonance (SPR) was conducted on a BIAcore 3000 biosensor (BIAcore, Uppsala, Sweden) at 25° C. in HBS-EP (10 mM HEPES, pH 7.4, 150 mM NaCl, 3 mM EDTA, 0.005% surfactant P20) at a flow rate of 40 μl/min. […] Kinetic experiments consisted of a two minute injection of analyte followed by a 100 s dissociation phase in running buffer, after which the binding surface was regenerated with a 2 minute injection of 2 M MgCl₂. A blank flow cell was used for in-line reference subtraction of changes due to differences in refractive index of running buffer versus sample and a buffer-only injection was used to subtract instrument noise and drift. Injections were performed in duplicate for each concentration and in a randomised order. Kinetic parameters were determined by global fitting of sensorgrams to a two-state (conformational change) binding model using BIAevaluation software version 4.0.1. In all cases the minor component made an insignificant contribution to the overall affinity and as such only the kinetic parameters of the major binding component were used. For each interaction the dissociation affinity constant (KD) was also calculated by fitting of the response of each concentration at equilibrium to a steady-state affinity model using BIAevaluation.

[2] = molecular target: T1, recombinant human IGF-II (Insulin-like …); assay: SPR, IGF-II immobilised, kinetic fit; remark: listed apart in the source
Outline: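 Domain 11 proteins made in Pichia pastoris and purified by His-tag were passed in duplicate, in random order, over ~50 RU of biotinylated IGF-II bound to a streptavidin Sensor Chip SA on a BIAcore 3000 (25° C, HBS-EP, 40 μl/min, 2 min injections, 100 s dissociation, 2 M MgCl₂ regeneration), at 4096–8 nM, or 16384–32 nM for three constructs. Kinetic rate constants and Kd were derived by global sensorgram fitting in BIAevaluation 4.0.1, with blank-flow-cell and buffer-injection signals subtracted first.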

[3] = molecular target: T1, recombinant human IGF-II (Insulin-like …); assay: SPR, IGF-II immobilised, steady state
Protocol: as §1, §2

[4] = molecular target: T1, recombinant human IGF-II (Insulin-like …); assay: SPR, IGF-II immobilised, steady state; remark: listed apart in the source
Outline: (§3)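 Domain 11 proteins were secreted from Pichia pastoris, purified by His-tag and injected in duplicate over about 50 RU of biotinylated IGF-II captured on a streptavidin Sensor Chip SA in a BIAcore 3000 at 25° C, in HBS-EP at 40 μl/min with 2 min injections. Analyte concentrations spanned 4096–8 nM, or 16384–32 nM for three constructs, and blank-flow-cell and buffer-injection signals were subtracted. Kd was obtained in BIAevaluation by fitting the equilibrium response at each concentration to a steady-state affinity model.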

[5] = molecular target: T1, recombinant human IGF-II (Insulin-like …); assay: SPR, steady-state KD relative to wild type
Protocol: as §1, §2

[6] = molecular target: T1, recombinant human IGF-II (Insulin-like …); assay: SPR, steady-state KD relative to wild type; remark: listed apart in the source
Outline: as §3

[7] = molecular target: T2, recombinant human IGF-I (Insulin-like Growth Factor I) (human, UniProt P05019 49-118, biotinylated (Biotinyl-IGF-I, GroPep), site not stated); assay: SPR, biotinylated IGF-I immobilised
T2 construct: also called IGF1; Biotinyl-IGF-I
T2 sequence (P05019 49-118 limits assumed): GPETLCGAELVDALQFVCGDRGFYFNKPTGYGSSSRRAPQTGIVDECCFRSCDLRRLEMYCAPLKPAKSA
Protocol: Kinetic experiments consisted of a two minute injection of analyte followed by a 100 s dissociation phase in running buffer, after which the binding surface was regenerated with a 2 minute injection of 2 M MgCl₂. A blank flow cell was used for in-line reference subtraction of changes due to differences in refractive index of running buffer versus sample and a buffer-only injection was used to subtract instrument noise and drift. Injections were performed in duplicate for each concentration and in a randomised order. Kinetic parameters were determined by global fitting of sensorgrams to a two-state (conformational change) binding model using BIAevaluation software version 4.0.1. In all cases the minor component made an insignificant contribution to the overall affinity and as such only the kinetic parameters of the major binding component were used. For each interaction the dissociation affinity constant (KD) was also calculated by fitting of the response of each concentration at equilibrium to a steady-state affinity model using BIAevaluation. In order to investigate the influence of ionic strength, kinetic experiments were conducted in HBS-EP running buffers containing the desired NaCl concentration. In each case, analyte samples were made up in the appropriate running buffer prior to injection.
The affinity of versions of Fc-tagged domain 11 fusion proteins, and domain 11 constructs, for IGF-II were compared using surface plasmon resonance (BIAcore 3000). Attempts were made to immobilize Fc-tagged domain 11 proteins upon a sensor chip surface (CM5 and CM5-proteinA) but we encountered similar problems as described above with immobilised monomeric domain 11. Instead, immobilisation of biotinylated IGF-I and IGF-II on separate flow cells of a streptavidin coated sensor chip (BIAcore) generated reproducible sensorgram profiles when Fc-tagged and untagged domain 11 proteins were passed over the surface as analytes. The Fc-tagged domain 11 kinetic data performed in triplicate generated sensorgrams that were analyzed using a bivalent analyte model.

[8] = molecular target: T1, recombinant human IGF-II (Insulin-like …); assay: SPR, IGF-II immobilised, kinetic fit; remark: listed apart in the source
Protocol: as §2, with “BIAevaluation. In order to investigate the influence of ionic strength, kinetic experiments were conducted in HBS-EP running buffers containing the desired NaCl concentration. In each case, analyte samples were made up in the appropriate running buffer prior to injection.” for “BIAevaluation.”
(§4) Following purification, the binding of each mutant construct to IGF2 was assessed by SPR and compared to the wild type domain 11. Sensorgrams were generated using biotinylated IGF2 immobilised to the cell surface and mutant domain 11 proteins as the free analyte (FIG. 4).

[9] = molecular target: T1, recombinant human IGF-II (Insulin-like …); assay: SPR, IGF-II immobilised, steady state; remark: listed apart in the source
Protocol: as §2, with “BIAevaluation. In order to investigate the influence of ionic strength, kinetic experiments were conducted in HBS-EP running buffers containing the desired NaCl concentration. In each case, analyte samples were made up in the appropriate running buffer prior to injection.” for “BIAevaluation.”
as §4

[10] = molecular target: T1, recombinant human IGF-II (Insulin-like …); assay: SPR, steady-state KD relative to wild type; remark: listed apart in the source
Protocol: […]. Values are the mean±S.E.M. of three separate experiments.
as §2, with “BIAevaluation. In order to investigate the influence of ionic strength, kinetic experiments were conducted in HBS-EP running buffers containing the desired NaCl concentration. In each case, analyte samples were made up in the appropriate running buffer prior to injection.” for “BIAevaluation.”
Following purification, the binding of each mutant construct to IGF2 was assessed by SPR and compared to the wild type domain 11.

[11] = molecular target: T1, recombinant human IGF-II (Insulin-like …); assay: SPR (Biacore)
[12] = molecular target: T1, recombinant human IGF-II (Insulin-like …); assay: ITC, IGF-II titrated into domain 11
Protocol: Calorimetric measurements were performed using a VP-ITC microcalorimeter (MicroCal). All solutions were thoroughly degassed before use by stirring under vacuum. […] The sample cell contained either wild type domain 11 (7 uM) or the E1544A mutant (8 μM), also in HBS-E buffer. To correct for the heat effects of dilution and mixing, reaction heats obtained from a control experiment, in which IGF2 was injected into HBS-E, were subtracted. Calorimetric data were analysed using MicroCal ORIGIN software (version 5.0) supplied with the instrument. Thermodynamic parameters were derived by fitting the binding isotherms to a single-site binding model. Values for dissociation affinity constants (KD) were determined from duplicate experiments.
In order to validate the SPR sensorgram data, ITC was used to assess the binding affinity between domain 11 and IGF-II. The affinity of the E1544A mutant was also assessed by ITC in order to confirm whether use of a second technique agreed as to the apparent increase in affinity (FIG. 6 and Table 6). Titrations were performed using 17×15 μl injections of 40 μM IGF-II (after an initial 7.51 injection) into the reaction cell containing wild type domain 11 or the E1544A mutant. […] The two fold differences may be simply accounted for by the fidelity of both techniques.

Row | Binder | Kd [8] | koff [8] | kon [8] | Kd [9] | Relative Affinity [10] | further results
1 | B1 | – | – | – | – | – | Kd [1]: 49.8 nM; koff [1]: 0.041 s⁻¹; kon [1]: 837000 M⁻¹ s⁻¹; Kd [2]: 60.5 nM; koff [2]: 0.0675 s⁻¹; kon [2]: 1.12e+06 M⁻¹ s⁻¹; Kd [3]: 52.7 nM; Kd [4]: 52.7 nM; Relative Affinity [5]: 1.96 fold (wild type = 1.00); Relative Affinity [6]: 1.96 fold (wild type = 1.00)
2 | B2 | – | – | – | – | – | binding result [7]: no binding (tested: 16384 nM highest analyte concentration)
3 | B3 | 287 nM | 0.078 s⁻¹ | 273000 M⁻¹ s⁻¹ | 289 nM | 0.36 fold (wild type = 1.00) | –
4 | B4 | 130 nM | 0.069 s⁻¹ | 529000 M⁻¹ s⁻¹ | 130 nM | 0.8 fold (wild type = 1.00) | Kd [11]: 130 nM; Kd [12]: 209 nM
5 | B5 | 260 nM | 0.096 s⁻¹ | 369000 M⁻¹ s⁻¹ | 262 nM | 0.39 fold (wild type = 1.00) | –
6 | B6 | 179 nM | 0.079 s⁻¹ | 441000 M⁻¹ s⁻¹ | 170 nM | 0.61 fold (wild type = 1.00) | Kd [11]: 170 nM; Kd [12]: 324 nM
7 | B7 | 954 nM | 0.281 s⁻¹ | 295000 M⁻¹ s⁻¹ | 930 nM | 0.11 fold (wild type = 1.00) | –
8 | B8 | 639 nM | 0.169 s⁻¹ | 265000 M⁻¹ s⁻¹ | 633 nM | 0.16 fold (wild type = 1.00) | –
